Measured values published in patent publication US11034759B2, “Humanized M-CSF specific monoclonal antibodies, kits, and uses thereof” (NOVARTIS VACCINES AND DIAGNOSTICS, INC., priority 2004, dated 2021).
Substitutions are numbered along the chain they refer to. Blank lines part the entries; values can stand above or below the molecule they belong to.

Legend:
MCSF [1] = biological target: T1, MCSF (Homo sapiens, UniProt P09603); test: Biacore analysis, antibody captured on anti-mouse Fc chip, MCSF flowed over; type: binding; details: Table 8, 25° C., 1:1 interaction model
T1 sequence (P09603 33-255 limits assumed): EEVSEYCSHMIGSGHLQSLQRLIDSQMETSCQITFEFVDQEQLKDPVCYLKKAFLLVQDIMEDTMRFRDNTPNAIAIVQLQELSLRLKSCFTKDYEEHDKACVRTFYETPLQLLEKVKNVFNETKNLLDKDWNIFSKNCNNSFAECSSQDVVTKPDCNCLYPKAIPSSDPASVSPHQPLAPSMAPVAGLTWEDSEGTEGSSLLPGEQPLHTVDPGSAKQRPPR
Method: Binding properties of the aforementioned antibodies were analyzed using Biacore analyses. […] The aforementioned antibodies were then captured on the anti-mouse Fc/CM5 biosensor chip at 1.5 μg/ml for 3 min at 2 μl/min. MCSF was flowed over the modified biosensor surface at varying concentrations (Rmax ˜15). Test antibodies and antigen were diluted in 0.01 M HEPES pH 7.4, 0.15 M NaCL, 3 mM EDTA, 0.005% Surfactant P20 (HBS-EP). All experiments were performed at 25° C. Kinetic and affinity constants were determined using Biaevaluation software (Biacore) with a 1:1 interaction model/global fit.

MCSF [2] = biological target: T1, MCSF; test: Biacore analysis, M-CSF immobilized, intact Mab or Fab flowed over (Example 11); type: binding; details: Table 9, 25° C., 1:1 interaction model
Method: Specifically, M-CSF was immobilized onto CMS biosensor chip via amine coupling. 0.05 μg/ml M-CSF in 10 mM Na Acetate pH 4.0 was injected at 1 μl/min for 5 minutes to achieve RL=6-12 RU. Test antibody (or Fab fragment) were flowed over the modified biosensor surface at varying concentrations. Test antibodies were diluted in 0.01 M HEPES pH 7.4, 0.15 M NaCL, 3 mM EDTA, 0.005% Surfactant P20 (HBS-EP) and all experiments were done at 25° C. Kinetic and affinity constants were determined using Biaevaluation software (Biacore) with a 1:1 interaction model/global fit.

MCSF [3] = biological target: T1, MCSF; test: Recognition of M-CSF under reducing and non-reducing conditions; type: binding; details: 0.1 μg M-CSF
Method: Accordingly, the anti-M-CSF antibodies were tested against 0.1 μg M-CSF under reducing as well as non-reducing conditions.

MCSF [4] = biological target: T1, MCSF; test: Biacore analysis of Human Engineered RX1 antibodies, M-CSF immobilized (Example 13); type: binding
Method: To determine the relative differences in the binding affinity of intact antibodies by Biacore analysis, M-CSF was immobilized onto CMS biosensor chip via amine coupling. 0.05 μg/ml M-CSF in 10 mM Na-Acetate pH 4.0 was injected at 1 μl/min for 5 minutes to achieve RL=6-12 RU. Test antibody or Fab fragments were flowed over the modified biosensor surface at varying concentrations ranging from 100 nM to 1.5 nM in 2-fold dilutions. Test antibodies were diluted in 0.01 M HEPES pH 7.4, 0.15 M NaCL, 3 mM EDTA, 0.005% Surfactant P20 (HBS-EP) and all experiments were done at 25° C. Each concentration point and buffer blanks were run in triplicate, and data was collected over 3 minutes of association and 8 minutes of dissociation. Kinetic and affinity constants were determined using Biaevaluation software with a 1:1 interaction model/global fit.

MCSF [5] = biological target: T1, MCSF; test: Size of antigen-antibody complex by size exclusion chromatography or light scattering; details: M-CSF and antibody at equal molar ratios
MCSF [6] = biological target: T1, MCSF; test: M-NFS-60 proliferation assay, neutralizing activity (Example 1); type: cell-based; details: 10 ng/ml M-CSF, 72 hours
Method: Proliferation of M-NFS-60 requires active M-CSF in a dose-dependent fashion. In the assay, M-NFS-60 cells were washed and plated in RPMI 1640 medium with 10% FBS and 3000 U/ml of M-CSF and 1% Pen/Strep. Recombinant human M-CSF (at 10 ng/ml final concentration), human or murine-specific, was incubated with various concentrations of antibodies for 1 hour at 37° C. in 5% CO2 in an incubator. Following the incubation, the mixture was added to the M-NFS-60 culture in 96 well microtiter plates. Cells were incubated at 37° C. under 5% CO2 for 72 hours before cell numbers were quantified by CellTiter Glo assay (Promega). The aforementioned assay was repeated for antibodies MC3 and MC1.

- Ka (MCSF [1]): 594000 M⁻¹ s⁻¹
- Kd (MCSF [1]): 0.00177 s⁻¹
- Ka (MCSF [2]): 127000 M⁻¹ s⁻¹
- Kd (MCSF [2]): 0.00126 s⁻¹
B1: 5H4: MCSF-specific murine antibody 5H4 (SEQ ID NOs: 10 and 11) (antibody, listed as Mus musculus)
heavy: EIQLQQSGPELVKTGTSVKISCKASGYSFTGYFMHWVKQSHGKSLEWIGYISCYNGDTNYNQNFKGKATFTVDTSSSTAYMQFNSLTSEDSAVYYCAREGGNYPAYWGQGTLVTVSAAKTTPPSVYPLAPGSAAQTNSMVTLGCLVKGYFPEPVTVTWNSGSLSSGVHTFPAVLQSDLYTLSSSVTVPSSTWPSETVTCNVAHPASSTKVDKKIVPRDCGCKPCICTVPEVSSVFIFPPKPKDVLTITLTPKVTCVVVDISKDDPEVQFSWFVDDVEVHTAQTQPREEQFNSTFRSVSELPIMHQDWLNGKEFKCRVNSAAFPAPIEKTISKTKGRPKAPQVYTIPPPKEQMAKDKVSLTCMITDFFPEDITVEWQWNGQPAENYKNTQPIMDTDGSYFVYSKLNVQKSNWEAGNTFTCSVLHEGLHNHHTEKSLSHSPGK
light: DIVMTQSHKFMSTSVGDRVTITCKASQNVGTAVTWYQQKPGQSPKLLIYWTSTRHAGVPDRFTGSGSGTDFTLTISDVQSEDLADYFCQQYSSYPLTFGAGTKLELKRADAAPTVSIFPPSSEQLTSGGASVVCFLNNFYPKDINVKWKIDGSERQNGVLNSWTDQDSKDSTYSMSSTLTLTKDEYERHNSYTCEATHKTSTSPIVKSFNRNEC
- Form of M-CSF recognized (MCSF [3]): Only the non-reduced form of M-CSF was recognized

- ka (MCSF [4]; Table 11, 25° C.): 200000 M⁻¹ s⁻¹
- kd (MCSF [4]; Table 11, 25° C.): 0.00144 s⁻¹
- Size of antigen-antibody complex (MCSF [5]): about 400 kDa
- Type of antigen-antibody complex formed with MCSF (MCSF [5]): 2:1 or 2:2 complexes
B2: heRX1-9.G2: Human Engineered RX1: light chain Low + Mod Risk (Germline), heavy chain Low Risk (Kabat), Gamma 2 (antibody)
heavy: DVQLQESGPGLVKPSQTLSLTCTVTDYSITSDYAWNWIRQFPGKKLEWMGYISYSGSTSYNPSLKSRITISRDTSKNQFSLQLNSVTAADTATYYCASFDYAHAMDYWGQGTTVTVSS
light: DIVLTQSPAFLSVTPGEKVTFTCQASQSIGTSIHWYQQKTDQAPKLLIKYASESISGIPSRFSGSGSGTDFTLTISSVEAEDAADYYCQQINSWPTTFGGGTKLEIKRT
modifications: left off: a dimerising Fc or GST

- ka (MCSF [4]; Table 11, 25° C.): 201000 M⁻¹ s⁻¹
- kd (MCSF [4]; Table 11, 25° C.): 0.00118 s⁻¹
B3: heRX1-3.G2: Human Engineered RX1: light chain Low + Mod Risk (Kabat), heavy chain Low Risk (Kabat), Gamma 2 (antibody)
heavy: B2 heavy
light: EIVLTQSPGTLSVSPGERVTFSCRASQSIGTSIHWYQQKTGQAPRLLIKYASERATGIPDRFSGSGSGTDFTLTISRVESEDFADYYCQQINSWPTTFGQGTKLEIKRT
modifications: left off: a dimerising Fc or GST

- kd (sec-1) (MCSF [4]; Table 10, 25° C.): (1.1 ± 0.11) × 10^−3 sec-1
- kd (sec-1) (MCSF [4]; Table 11, 25° C.): (1.1 ± 0.11) × 10^−3 sec-1
- Size of antigen-antibody complex (MCSF [5]): about 400 kDa
- Type of antigen-antibody complex formed with MCSF (MCSF [5]): 2:1 or 2:2 complexes
B4: heRX1-10.G2: Human Engineered RX1: light chain Low + Mod Risk (Germline), heavy chain Low + Mod Risk (Kabat), Gamma 2 (antibody)
heavy: B2 heavy with D1Q, T25S, K45G, T93V
light: B2 light
modifications: left off: a dimerising Fc or GST

- kd (sec-1) (MCSF [4]; Table 10, 25° C.): (1.37 ± 0.24) × 10^−3 sec-1
- kd (sec-1) (MCSF [4]; Table 11, 25° C.): (1.37 ± 0.24) × 10^−3 sec-1
- Size of antigen-antibody complex (MCSF [5]): greater than 2×10^6 Da
- Type of antigen-antibody complex formed with MCSF (MCSF [5]): large lattice aggregates
B5: heRX1-1.G2: Human Engineered RX1: light chain Low Risk (Kabat), heavy chain Low Risk (Kabat), Gamma 2 (antibody)
heavy: B2 heavy
light: B3 light with A43S, A55I, T56S
modifications: left off: a dimerising Fc or GST

- Neutralization of M-CSF activity (M-NFS-60 proliferation) (MCSF [6]): effective inhibitors of M-CSF activity
B6: MC1: MCSF-specific murine antibody MC1 (SEQ ID NOs: 12 and 13), hybridoma ATCC PTA-6263 (antibody, listed as Mus musculus)
heavy: EVKLVESGGGLVQPGGSLKLSCATSGFTFSDYYMYWVRQTPEKRLEWVAYISNGGGSTYYPDTVKGRFTISRDNAKNTLYLQMSRLKSEDTAMYYCARQGSYGYPFAYWGQGTLVTVSAAKTTAPSVYPLAPVCGDTTGSSVTLGCLVKGYFPEPVTLTWNSGSLSSGVHTFPAVLQSDLYTLSSSVTVTSSTWPSQSITCNVAHPASSTKVDKKIEPRGPTIKPCPPCKCPAPNLLGGPSVFIFPPKIKDVLMISLSPIVTCVVVDVSEDDPDVQISWFVNNVEVHTAQTQTHREDYNSTLRVVSALPIQHQDWMSGKEFKCKVNNKDLPAPIERTISKPKGSVRAPQVYVLPPPEEEMTKKQVTLTCMVTDFMPEDIYVEWTNNGKTELNYKNTEPVLDSDGSYFMYSKLRVEKKNWVERNSYSCSVVHEGLHNHHTTKSFSRTPGK
light: AIQMTQTTSSLSASLGDRVTISCSASQGISNYLNWYQQKPDGTVKLLIYYTSSLHSGVPSRFSGSGSGTDYSLTISNLEPEDIATYYCQQYSKLPWTFGGGTKLEIKRADAAPTVSIFPPSSEQLTSGGASVVCFLNNFYPKDINVKWKIDGSERQNGVLNSWTDQDSKDSTYSMSSTLTLTKDEYERHNSYTCEATHKTSTSPIVKSFNRNEC
